Measured values from patent US6455025B1, “Polysaccharide-peptide derivatives” (Map Medical Technologies Oy, priority 1996, dated 2002).

Tests used:
[1] = system: tumours and other background tissues; assay: Gamma-recording after technetium-99m labelled dextran derivative: accumulation into tumours and background tissues; details: patient, 20 mCi technetium-99m labelled dextran derivative
Procedure: The Effect of Different Dextran Conjugates on the Tumour Accumulation and Background-activity
After the administration of 20 mCi of technetium-99 m, labelled dextran derivative to the patient a gamma-recording was carried out on the patient. From the image, the accumulation of the labelled compound into the tumours and to the other background tissues was evaluated. The compounds of the state of the art were prepared as described in the publication Holmberg et al., Antibody Immunoconj. Radiopharm 7: 253-257, 1994.

[2] = Holmberg et al. 1994; cited from earlier work

Substance | Background (accumulation of the labelled compound into other background tissues) [1] | Tumour (accumulation of the labelled compound into the tumours) [1] | half-life in blood T(1)½ [2] | half-life in blood T(2)½ [2]
Dextran 40 000 somatostatin ^99mTc: State of the art dextran 40 000 somatostatin conjugate labelled with technetium-99m, without taurine | ++ | ++ |  | 
Dextran 10 000 somatostatin-^99mTc: State of the art conjugate prepared as in Holmberg et al. 1994; dextran 10 000 somatostatin labelled with technetium-99m | +++ | + | 4 h | 8 h
Dextran 10 000 somatostatin-taurine-^99mTc: Technetium-99m labelled dextran 10 000 somatostatin taurine conjugate, listed under The Invention | ++ | + |  | 
Dextran 40 000 somatostatin-taurine ^99mTc: Dextran 40 000-somatostatin-taurine labelled with technetium-99m using SnCl and sodium pertechnetate | + |  |  | 
